Three molecules from article PMC6698736 can be followed below.

For data set [1], the target named is KacA, wild type, purified alone (Klebsiella pneumoniae). The experiment in a line: SEC-MALS.
The target in data set [2] is KacA (coexpressed in KacAT);KacT (Klebsiella pneumoniae;Klebsiella …, UniProt A0A0H3GLZ1;A0A0H3GMP0 1-88;1-177, |). The experiment in a line: X-ray crystallography.

In the case of “KacA, wild type, purified alone (natural protein)”, the stoichiometry N (as a rule, a count of units in the complex or per binding partner) in data set [1] came to 2. Consider KacT^Y145F (enzyme), for which, in data set [1], the N, peak α (KacT per KacA (8:8)) came to 1 and the N, peak β (KacT per KacA (2:4)) was determined as 0.5.

B1: 27-bp kacAT operator duplex (dsDNA)
DNA 1: AAATGTACGGTTATTAACCGTACATGA
DNA 2: TCATGTACGGTTAATAACCGTACATTT
B1: in data set [2], the binding result is recorded as “binds”.
